From patent US20230357348A1 (AstraZeneca / MedImmune, published 2023)
Starred links: 1 amine or outer side, 2 acyl side, 3 side chain; linkers in the order of their positions; H or OH if unused. Non-standard residues stand in square brackets, D forms with d. Groups on a side chain read outwards from the residue. No end group written: not given here. *: point of attachment. C20 diacid = O=C(O)CCCCCCCCCCCCCCCCCCC(=O)*; C18 diacid = O=C(O)CCCCCCCCCCCCCCCCC(=O)*; γGlu = O=C(O)[C@H](CCC(=O)[*:2])N[*:1]; αMeF = C[C@](N)(Cc1ccccc1)C(=O)O; AEEA = NCCOCCOCC(=O)O; Aib = CC(C)(N)C(=O)O

Legend:
[1] = target: human GLP-1 receptor (hGLP-1R) (human, UniProt P43220 24-463); assay: cell-based or functional assay
[2] = target: human glucagon receptor (hGCGR) (human, UniProt P47871 26-477); assay: cell-based or functional assay
Sequence of human glucagon receptor (hGCGR) (P47871 26-477): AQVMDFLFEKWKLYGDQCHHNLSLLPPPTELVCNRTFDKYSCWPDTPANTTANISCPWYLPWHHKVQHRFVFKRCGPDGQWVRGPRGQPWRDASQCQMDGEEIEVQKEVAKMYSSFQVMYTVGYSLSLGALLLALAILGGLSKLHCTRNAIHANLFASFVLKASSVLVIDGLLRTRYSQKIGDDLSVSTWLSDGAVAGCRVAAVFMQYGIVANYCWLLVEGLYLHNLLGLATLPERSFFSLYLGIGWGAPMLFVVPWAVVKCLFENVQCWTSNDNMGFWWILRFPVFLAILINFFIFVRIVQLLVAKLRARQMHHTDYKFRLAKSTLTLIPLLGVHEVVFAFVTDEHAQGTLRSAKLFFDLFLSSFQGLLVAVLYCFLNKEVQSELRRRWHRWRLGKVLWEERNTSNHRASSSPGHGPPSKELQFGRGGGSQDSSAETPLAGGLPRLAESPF

B1: Peptide 449 (peptide)
peptide: H[Aib]QGTFTSDVSK[αMeF]LDTK([AEEA-AEEA-γGlu-γGlu-C20 diacid])RARDFVQWLLE[Aib]G-OH
modifications: N-terminus assumed
SMILES: CC(C)C[C@H](NC(=O)[C@H](Cc1c[nH]c2ccccc12)NC(=O)[C@H](CCC(N)=O)NC(=O)[C@@H](NC(=O)[C@H](Cc1ccccc1)NC(=O)[C@H](CC(=O)O)NC(=O)[C@H](CCCNC(=N)N)NC(=O)[C@H](C)NC(=O)[C@H](CCCNC(=N)N)NC(=O)[C@H](CCCCNC(=O)COCCOCCNC(=O)COCCOCCNC(=O)CC[C@H](NC(=O)CC[C@H](NC(=O)CCCCCCCCCCCCCCCCCCC(=O)O)C(=O)O)C(=O)O)NC(=O)[C@@H](NC(=O)[C@H](CC(=O)O)NC(=O)[C@H](CC(C)C)NC(=O)[C@](C)(Cc1ccccc1)NC(=O)[C@H](CCCCN)NC(=O)[C@H](CO)NC(=O)[C@@H](NC(=O)[C@H](CC(=O)O)NC(=O)[C@H](CO)NC(=O)[C@@H](NC(=O)[C@H](Cc1ccccc1)NC(=O)[C@@H](NC(=O)CNC(=O)[C@H](CCC(N)=O)NC(=O)C(C)(C)NC(=O)[C@@H](N)Cc1c[nH]cn1)[C@@H](C)O)[C@@H](C)O)C(C)C)[C@@H](C)O)C(C)C)C(=O)N[C@@H](CC(C)C)C(=O)N[C@@H](CCC(=O)O)C(=O)NC(C)(C)C(=O)NCC(=O)O
hGLP-1R EC50 (pM) [1]: 207 pM | hGluc-R EC50 (pM) [2]: 242 pM

B2: Peptide 447 (peptide)
peptide: H[Aib]QGTFTSDVSK[αMeF]LDRK([AEEA-AEEA-γGlu-γGlu-C20 diacid])RAQDFVRWLV[Aib]E-NH2
modifications: N-terminus assumed
SMILES: CC(C)C[C@H](NC(=O)[C@H](Cc1c[nH]c2ccccc12)NC(=O)[C@H](CCCNC(=N)N)NC(=O)[C@@H](NC(=O)[C@H](Cc1ccccc1)NC(=O)[C@H](CC(=O)O)NC(=O)[C@H](CCC(N)=O)NC(=O)[C@H](C)NC(=O)[C@H](CCCNC(=N)N)NC(=O)[C@H](CCCCNC(=O)COCCOCCNC(=O)COCCOCCNC(=O)CC[C@H](NC(=O)CC[C@H](NC(=O)CCCCCCCCCCCCCCCCCCC(=O)O)C(=O)O)C(=O)O)NC(=O)[C@H](CCCNC(=N)N)NC(=O)[C@H](CC(=O)O)NC(=O)[C@H](CC(C)C)NC(=O)[C@](C)(Cc1ccccc1)NC(=O)[C@H](CCCCN)NC(=O)[C@H](CO)NC(=O)[C@@H](NC(=O)[C@H](CC(=O)O)NC(=O)[C@H](CO)NC(=O)[C@@H](NC(=O)[C@H](Cc1ccccc1)NC(=O)[C@@H](NC(=O)CNC(=O)[C@H](CCC(N)=O)NC(=O)C(C)(C)NC(=O)[C@@H](N)Cc1c[nH]cn1)[C@@H](C)O)[C@@H](C)O)C(C)C)C(C)C)C(=O)N[C@H](C(=O)NC(C)(C)C(=O)N[C@@H](CCC(=O)O)C(N)=O)C(C)C
hGLP-1R EC50 (pM) [1]: 170 pM | hGluc-R EC50 (pM) [2]: 667 pM

H[Aib]QGTFTSDVSK[αMeF]LETKRARDFVQWLLE[Aib]G-OH (not fully specified (residue 17)) [Peptide 444]
hGLP-1R EC50 (pM) [1]: 247 pM | hGluc-R EC50 (pM) [2]: 1760 pM

H[Aib]QGTFTSDVSK[αMeF]LETK([AEEA-AEEA-γGlu-C18 diacid])RARDFVQWLLE[Aib]G-OH [Peptide 445]
hGLP-1R EC50 (pM) [1]: 33 pM | hGluc-R EC50 (pM) [2]: 684 pM

B3: Peptide 443 (peptide)
peptide: H[Aib]QGTFTSDVSK[αMeF]LDKK([AEEA-AEEA-γGlu-C18 diacid])RARDFVRWLL[Aib]E-NH2
modifications: N-terminus assumed
SMILES: CC(C)C[C@H](NC(=O)[C@H](Cc1c[nH]c2ccccc12)NC(=O)[C@H](CCCNC(=N)N)NC(=O)[C@@H](NC(=O)[C@H](Cc1ccccc1)NC(=O)[C@H](CC(=O)O)NC(=O)[C@H](CCCNC(=N)N)NC(=O)[C@H](C)NC(=O)[C@H](CCCNC(=N)N)NC(=O)[C@H](CCCCNC(=O)COCCOCCNC(=O)COCCOCCNC(=O)CC[C@H](NC(=O)CCCCCCCCCCCCCCCCC(=O)O)C(=O)O)NC(=O)[C@H](CCCCN)NC(=O)[C@H](CC(=O)O)NC(=O)[C@H](CC(C)C)NC(=O)[C@](C)(Cc1ccccc1)NC(=O)[C@H](CCCCN)NC(=O)[C@H](CO)NC(=O)[C@@H](NC(=O)[C@H](CC(=O)O)NC(=O)[C@H](CO)NC(=O)[C@@H](NC(=O)[C@H](Cc1ccccc1)NC(=O)[C@@H](NC(=O)CNC(=O)[C@H](CCC(N)=O)NC(=O)C(C)(C)NC(=O)[C@@H](N)Cc1c[nH]cn1)[C@@H](C)O)[C@@H](C)O)C(C)C)C(C)C)C(=O)N[C@@H](CC(C)C)C(=O)NC(C)(C)C(=O)N[C@@H](CCC(=O)O)C(N)=O
hGLP-1R EC50 (pM) [1]: 20.6 pM | hGluc-R EC50 (pM) [2]: 22.4 pM

B4: Peptide 442 (peptide)
peptide: H[Aib]QGTFTSDVSK[αMeF]LDKK([AEEA-AEEA-γGlu-C18 diacid])RAQDFVRWLLE[Aib]G-NH2
modifications: N-terminus assumed
SMILES: CC(C)C[C@H](NC(=O)[C@H](Cc1c[nH]c2ccccc12)NC(=O)[C@H](CCCNC(=N)N)NC(=O)[C@@H](NC(=O)[C@H](Cc1ccccc1)NC(=O)[C@H](CC(=O)O)NC(=O)[C@H](CCC(N)=O)NC(=O)[C@H](C)NC(=O)[C@H](CCCNC(=N)N)NC(=O)[C@H](CCCCNC(=O)COCCOCCNC(=O)COCCOCCNC(=O)CC[C@H](NC(=O)CCCCCCCCCCCCCCCCC(=O)O)C(=O)O)NC(=O)[C@H](CCCCN)NC(=O)[C@H](CC(=O)O)NC(=O)[C@H](CC(C)C)NC(=O)[C@](C)(Cc1ccccc1)NC(=O)[C@H](CCCCN)NC(=O)[C@H](CO)NC(=O)[C@@H](NC(=O)[C@H](CC(=O)O)NC(=O)[C@H](CO)NC(=O)[C@@H](NC(=O)[C@H](Cc1ccccc1)NC(=O)[C@@H](NC(=O)CNC(=O)[C@H](CCC(N)=O)NC(=O)C(C)(C)NC(=O)[C@@H](N)Cc1c[nH]cn1)[C@@H](C)O)[C@@H](C)O)C(C)C)C(C)C)C(=O)N[C@@H](CC(C)C)C(=O)N[C@@H](CCC(=O)O)C(=O)NC(C)(C)C(=O)NCC(N)=O
hGLP-1R EC50 (pM) [1]: 19.1 pM | hGluc-R EC50 (pM) [2]: 35.8 pM

B5: Peptide 446 (peptide)
peptide: H[Aib]QGTFTSDVSK[αMeF]LDRK([AEEA-AEEA-γGlu-γGlu-C18 diacid])RAQDFVRWLV[Aib]E-NH2
modifications: N-terminus assumed
SMILES: CC(C)C[C@H](NC(=O)[C@H](Cc1c[nH]c2ccccc12)NC(=O)[C@H](CCCNC(=N)N)NC(=O)[C@@H](NC(=O)[C@H](Cc1ccccc1)NC(=O)[C@H](CC(=O)O)NC(=O)[C@H](CCC(N)=O)NC(=O)[C@H](C)NC(=O)[C@H](CCCNC(=N)N)NC(=O)[C@H](CCCCNC(=O)COCCOCCNC(=O)COCCOCCNC(=O)CC[C@H](NC(=O)CC[C@H](NC(=O)CCCCCCCCCCCCCCCCC(=O)O)C(=O)O)C(=O)O)NC(=O)[C@H](CCCNC(=N)N)NC(=O)[C@H](CC(=O)O)NC(=O)[C@H](CC(C)C)NC(=O)[C@](C)(Cc1ccccc1)NC(=O)[C@H](CCCCN)NC(=O)[C@H](CO)NC(=O)[C@@H](NC(=O)[C@H](CC(=O)O)NC(=O)[C@H](CO)NC(=O)[C@@H](NC(=O)[C@H](Cc1ccccc1)NC(=O)[C@@H](NC(=O)CNC(=O)[C@H](CCC(N)=O)NC(=O)C(C)(C)NC(=O)[C@@H](N)Cc1c[nH]cn1)[C@@H](C)O)[C@@H](C)O)C(C)C)C(C)C)C(=O)N[C@H](C(=O)NC(C)(C)C(=O)N[C@@H](CCC(=O)O)C(N)=O)C(C)C
hGLP-1R EC50 (pM) [1]: 32.9 pM | hGluc-R EC50 (pM) [2]: 366 pM

B6: Peptide 441 (peptide)
peptide: H[Aib]QGTFTSDVSK[αMeF]LDKK([AEEA-AEEA-γGlu-C20 diacid])RAQDFVRWLL[Aib]E-NH2
modifications: N-terminus assumed
SMILES: CC(C)C[C@H](NC(=O)[C@H](Cc1c[nH]c2ccccc12)NC(=O)[C@H](CCCNC(=N)N)NC(=O)[C@@H](NC(=O)[C@H](Cc1ccccc1)NC(=O)[C@H](CC(=O)O)NC(=O)[C@H](CCC(N)=O)NC(=O)[C@H](C)NC(=O)[C@H](CCCNC(=N)N)NC(=O)[C@H](CCCCNC(=O)COCCOCCNC(=O)COCCOCCNC(=O)CC[C@H](NC(=O)CCCCCCCCCCCCCCCCCCC(=O)O)C(=O)O)NC(=O)[C@H](CCCCN)NC(=O)[C@H](CC(=O)O)NC(=O)[C@H](CC(C)C)NC(=O)[C@](C)(Cc1ccccc1)NC(=O)[C@H](CCCCN)NC(=O)[C@H](CO)NC(=O)[C@@H](NC(=O)[C@H](CC(=O)O)NC(=O)[C@H](CO)NC(=O)[C@@H](NC(=O)[C@H](Cc1ccccc1)NC(=O)[C@@H](NC(=O)CNC(=O)[C@H](CCC(N)=O)NC(=O)C(C)(C)NC(=O)[C@@H](N)Cc1c[nH]cn1)[C@@H](C)O)[C@@H](C)O)C(C)C)C(C)C)C(=O)N[C@@H](CC(C)C)C(=O)NC(C)(C)C(=O)N[C@@H](CCC(=O)O)C(N)=O
hGLP-1R EC50 (pM) [1]: 62.7 pM | hGluc-R EC50 (pM) [2]: 72.8 pM

B7: Peptide 448 (peptide)
peptide: H[Aib]QGTFTSDVSK[αMeF]LDKK([AEEA-AEEA-γGlu-γGlu-C18 diacid])RARDFVRWLL[Aib]E-OH
modifications: N-terminus assumed
SMILES: CC(C)C[C@H](NC(=O)[C@H](Cc1c[nH]c2ccccc12)NC(=O)[C@H](CCCNC(=N)N)NC(=O)[C@@H](NC(=O)[C@H](Cc1ccccc1)NC(=O)[C@H](CC(=O)O)NC(=O)[C@H](CCCNC(=N)N)NC(=O)[C@H](C)NC(=O)[C@H](CCCNC(=N)N)NC(=O)[C@H](CCCCNC(=O)COCCOCCNC(=O)COCCOCCNC(=O)CC[C@H](NC(=O)CC[C@H](NC(=O)CCCCCCCCCCCCCCCCC(=O)O)C(=O)O)C(=O)O)NC(=O)[C@H](CCCCN)NC(=O)[C@H](CC(=O)O)NC(=O)[C@H](CC(C)C)NC(=O)[C@](C)(Cc1ccccc1)NC(=O)[C@H](CCCCN)NC(=O)[C@H](CO)NC(=O)[C@@H](NC(=O)[C@H](CC(=O)O)NC(=O)[C@H](CO)NC(=O)[C@@H](NC(=O)[C@H](Cc1ccccc1)NC(=O)[C@@H](NC(=O)CNC(=O)[C@H](CCC(N)=O)NC(=O)C(C)(C)NC(=O)[C@@H](N)Cc1c[nH]cn1)[C@@H](C)O)[C@@H](C)O)C(C)C)C(C)C)C(=O)N[C@@H](CC(C)C)C(=O)NC(C)(C)C(=O)N[C@@H](CCC(=O)O)C(=O)O
hGLP-1R EC50 (pM) [1]: 53.1 pM | hGluc-R EC50 (pM) [2]: 29 pM
